Experimental data reported in PMC2809015 (Biochemistry, 2009).
Where “and” joins values, the source holds several entries; their conditions need not be identical. Identical values can stand only once. Like-named read-outs stand apart in the source and are kept apart here.

B1: BioB containing one [2Fe-2S]2+ cluster per monomer (enzyme, E. coli, UniProt P12996 1-346, looked up)
chain: MAHRPRWTLSQVTELFEKPLLDLLFEAQQVHRQHFDPRQVQVSTLLSIKTGACPEDCKYCPQSSRYKTGLEAERLMEVEQVLESARKAKAAGSTRFCMGAAWKNPHERDMPYLEQMVQGVKAMGLEACMTLGTLSESQAQRLANAGLDYYNHNLDTSPEFYGNIITTRTYQERLDTLEKVRDAGIKVCSGGIVGLGETVKDRAGLLLQLANLPTPPESVPINMLVKVKGTPLADNDDVDAFDFIRTIAVARIMMPTSYVRLSAGREQMNEQTQAMCFMAGANSIFYGCKLLTTPNPEEDKDLQLFRKLGLNPQQTAVLAGDNEQQQRLEQALMTPDTDEYYNAAAL
B4: HscA substrate binding domain (SBD-HscA, residues 389-616) (domain or fragment, E. coli, UniProt P0A6Z1 389-616, looked up)
chain: LDVIPLSLGLETMGGLVEKVIPRNTTIPVARAQDFTTFKDGQTAMSIHVMQGERELVQDCRSLARFALRGIPALPAGGAHIRVTFQVDADGLLSVTAMEKSTGVEASIQVKPSYGLTDSEIASMIKDSMSYAEQDVKARMLAEQKVEAARVLESLHGALAADAALLSAAERQVIDDAAAHLSEVAQGDDVDAIEQAIKNVDKQTQDFAARRMDQSVRRALKGHSVDEV

Experiments:
[1] = molecular target: T1, HscA, Hsp70-class molecular chaperone of the isc operon (E. coli, UniProt P0A6Z1 1-616); assay: molecular weight filtration assay
T1 sequence (looked up): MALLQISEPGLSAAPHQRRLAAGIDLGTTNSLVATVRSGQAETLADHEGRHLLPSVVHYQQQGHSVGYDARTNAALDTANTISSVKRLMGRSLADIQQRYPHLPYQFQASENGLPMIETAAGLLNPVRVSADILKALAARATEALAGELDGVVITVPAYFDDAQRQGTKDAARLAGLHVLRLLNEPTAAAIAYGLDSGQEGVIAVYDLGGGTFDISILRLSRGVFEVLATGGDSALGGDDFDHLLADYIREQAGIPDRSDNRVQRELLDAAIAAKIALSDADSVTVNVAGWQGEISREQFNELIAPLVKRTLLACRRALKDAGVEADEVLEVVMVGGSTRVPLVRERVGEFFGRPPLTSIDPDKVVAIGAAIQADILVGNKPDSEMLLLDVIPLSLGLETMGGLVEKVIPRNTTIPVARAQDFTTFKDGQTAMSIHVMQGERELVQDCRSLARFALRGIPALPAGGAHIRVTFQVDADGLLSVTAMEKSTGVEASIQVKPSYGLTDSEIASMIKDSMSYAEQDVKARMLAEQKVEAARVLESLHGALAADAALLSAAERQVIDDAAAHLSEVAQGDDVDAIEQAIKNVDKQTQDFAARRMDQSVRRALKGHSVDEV

[2] = molecular target: the molecule itself; assay: AUC
[3] = molecular target: T1, HscA, Hsp70-class molecular chaperone …; assay: molecular weight filtration assay; remark: listed apart in the source
[4] = molecular target: B4; assay: molecular weight filtration assay
[5] = molecular target: T1, HscA, Hsp70-class molecular chaperone …; assay: molecular weight filtration assay; remark: listed apart in the source
[6] = molecular target: T1, HscA, Hsp70-class molecular chaperone …; assay: AUC
[7] = molecular target: the molecule itself; assay: AUC; remark: listed apart in the source
[8] = molecular target: B1; assay: molecular weight filtration assay
[9] = molecular target: T1, HscA, Hsp70-class molecular chaperone …; assay: molecular weight filtration assay; remark: listed apart in the source

B1
Kd [1]: 5.5 µM and 5.6 µM | stoichiometry N [2]: 2 | Kd [3]: ~5 µM | stoichiometry N [4]: 1 | stoichiometry N [5]: ~1 HscA per BioB dimer | Kd [6]: 12 µM | stoichiometry N [6]: 1 HscA per BioB dimer and 2 HscA per BioB dimer

B2: BioB apoprotein (His6-biotin synthase lacking both iron-sulfur clusters) (enzyme, E. coli, UniProt P12996 1-346, looked up)
chain: MAHRPRWTLSQVTELFEKPLLDLLFEAQQVHRQHFDPRQVQVSTLLSIKTGACPEDCKYCPQSSRYKTGLEAERLMEVEQVLESARKAKAAGSTRFCMGAAWKNPHERDMPYLEQMVQGVKAMGLEACMTLGTLSESQAQRLANAGLDYYNHNLDTSPEFYGNIITTRTYQERLDTLEKVRDAGIKVCSGGIVGLGETVKDRAGLLLQLANLPTPPESVPINMLVKVKGTPLADNDDVDAFDFIRTIAVARIMMPTSYVRLSAGREQMNEQTQAMCFMAGANSIFYGCKLLTTPNPEEDKDLQLFRKLGLNPQQTAVLAGDNEQQQRLEQALMTPDTDEYYNAAAL
stoichiometry N [7]: 2 | stoichiometry N [5]: 0.96 apoBioB dimer per HscA

B3: BioB containing both [2Fe-2S]2+ and [4Fe-4S]2+ clusters (enzyme, E. coli, UniProt P12996 1-346, looked up)
chain: MAHRPRWTLSQVTELFEKPLLDLLFEAQQVHRQHFDPRQVQVSTLLSIKTGACPEDCKYCPQSSRYKTGLEAERLMEVEQVLESARKAKAAGSTRFCMGAAWKNPHERDMPYLEQMVQGVKAMGLEACMTLGTLSESQAQRLANAGLDYYNHNLDTSPEFYGNIITTRTYQERLDTLEKVRDAGIKVCSGGIVGLGETVKDRAGLLLQLANLPTPPESVPINMLVKVKGTPLADNDDVDAFDFIRTIAVARIMMPTSYVRLSAGREQMNEQTQAMCFMAGANSIFYGCKLLTTPNPEEDKDLQLFRKLGLNPQQTAVLAGDNEQQQRLEQALMTPDTDEYYNAAAL
stoichiometry N [5]: ~1 HscA per BioB dimer

B4
Kd [8]: 0.55 ± 0.3 µM

B5: dethiobiotin synthase (BioD) (enzyme)
chain: SKRYFVTGTDTEVGKTVASCALLQAAKAAGYRTAGYKPVASGSEKTPEGLRNSDALALQRNSSLQLDYATVNPYTFAEPTSPHIISAQEGRPIESLVMSAGLRALEQQADWVLVEGAGGWFTPLSDTFTFADWVTQEQLPVILVVGVKLGCINHAMLTAQVIQHAGLTLAGWVANDVTPPGKRHAEYMTTLTRMIPAPLLGEIPWLAENPENAATGKYINLALL
Kd [9]: ≥ 1100 µM
